The values that follow come from US20240409635A1.

For assay [1], the target named is tyrosine-protein kinase Met (c-Met) on human tumor cells (human) (UniProt P08581). The assay can be described thus: cell-based or functional assay.
The target in assay [2] is EGFR-BsAb bispecific control antibody (TA1-Fab anti-CD3 x EGFR VHH). The assay can be described thus: BLI self-interaction, AHQ sensor.
The target in assay [3] is CEA-CAM6-BsAb bispecific control antibody (TA1-Fab anti-CD3 x CEA-CAM6 VHH). The assay can be described thus: BLI self-interaction, AHQ sensor.
Assay [4] addresses HER2-BsAb bispecific control antibody (TA1-Fab anti-CD3 x HER2 VHH). Description: BLI self-interaction, AHQ sensor.
Assay [5] has as its target CEA-BsAb bispecific control antibody (TA1-Fab anti-CD3 x CEA VHH). The assay can be described thus: BLI self-interaction, AHQ sensor.

tyrosine-protein kinase Met (c-Met) on human tumor cells (human), sequence (P08581 25-1390): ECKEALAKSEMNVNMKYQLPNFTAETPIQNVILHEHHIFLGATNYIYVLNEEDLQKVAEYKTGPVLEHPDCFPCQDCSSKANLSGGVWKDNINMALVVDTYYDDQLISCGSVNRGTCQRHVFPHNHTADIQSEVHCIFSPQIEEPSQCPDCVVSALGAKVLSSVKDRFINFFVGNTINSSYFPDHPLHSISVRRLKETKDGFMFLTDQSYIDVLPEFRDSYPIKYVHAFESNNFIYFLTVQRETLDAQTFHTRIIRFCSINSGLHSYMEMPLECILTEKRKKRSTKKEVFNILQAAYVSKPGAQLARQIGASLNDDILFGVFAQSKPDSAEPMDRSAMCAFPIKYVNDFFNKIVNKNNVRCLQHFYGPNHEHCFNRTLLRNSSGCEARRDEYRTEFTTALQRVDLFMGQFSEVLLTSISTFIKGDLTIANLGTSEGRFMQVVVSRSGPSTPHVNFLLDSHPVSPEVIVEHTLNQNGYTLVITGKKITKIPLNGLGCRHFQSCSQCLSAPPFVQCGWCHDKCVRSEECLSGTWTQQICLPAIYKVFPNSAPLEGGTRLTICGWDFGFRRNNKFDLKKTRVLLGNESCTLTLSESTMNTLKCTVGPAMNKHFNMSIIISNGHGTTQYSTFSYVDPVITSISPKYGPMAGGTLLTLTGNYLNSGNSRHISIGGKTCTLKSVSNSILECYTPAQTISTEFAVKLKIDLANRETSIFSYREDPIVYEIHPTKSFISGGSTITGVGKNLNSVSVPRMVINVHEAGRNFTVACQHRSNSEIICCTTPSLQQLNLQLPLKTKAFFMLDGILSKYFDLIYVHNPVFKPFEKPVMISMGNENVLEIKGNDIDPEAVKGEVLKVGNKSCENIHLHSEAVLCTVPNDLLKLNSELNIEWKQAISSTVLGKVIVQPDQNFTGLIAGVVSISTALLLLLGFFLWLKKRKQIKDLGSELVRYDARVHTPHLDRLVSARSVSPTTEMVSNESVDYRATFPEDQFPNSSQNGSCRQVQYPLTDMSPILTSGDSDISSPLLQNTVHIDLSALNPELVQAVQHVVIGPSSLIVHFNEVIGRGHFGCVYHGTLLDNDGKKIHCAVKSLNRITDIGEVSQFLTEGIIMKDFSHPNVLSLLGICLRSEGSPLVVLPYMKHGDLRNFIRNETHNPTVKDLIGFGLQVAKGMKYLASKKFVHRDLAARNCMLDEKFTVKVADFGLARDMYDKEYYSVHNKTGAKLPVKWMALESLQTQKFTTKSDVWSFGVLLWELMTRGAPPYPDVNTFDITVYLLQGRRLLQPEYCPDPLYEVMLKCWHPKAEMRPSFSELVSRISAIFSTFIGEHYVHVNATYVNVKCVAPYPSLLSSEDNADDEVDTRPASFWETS

B1: c-Met-BsAb bispecific control antibody (anti-CD3 TA1 Fab and c-Met VHH) (bispecific antibody, not shown: a dimerising Fc or GST)
heavy: EVKLLESGGGLVQPKGSLKLSCAASGFTFNTYAMNWVRQAPGKGLEWVARIRSKYNNYATYYADSVKDRFTISRDDSQSILYLQMNNLKTEDTAMYYCVRHGNFGNSYVSWFAYWGQGTLVTVSSASTKGPSVFPLAPCSRSTSESTAALGCLVKDYFPEPVTVSWNSGALTSGVHTFPAVLQSSGLYSLSSVVTVPSSSLGTKTYTCNVDHKPSNTKVDKRV
chain: QVKLEESGGDLVQPGGSLRLSCVGSGSIFSYTAMGWYRQAPGKQRELVATIHSGGNINYADSVKGRFTISRDNTENTVYLQMNSLKPEDTAVYYCWSLLVGPETRYKDFNFWGRGTQVTVSS
light: QAVVTQESALTTSPGETVTLTCRSSTGAVTTSNYANWVQEKPDHLFTGLIGGTNKRAPGVPARFSGSLIGDKAALTITGAQTEDEAIYFCALWYSNLWVFGGGTKVEIKRTVAAPSVFIFPPSDEQLKSGTASVVCLLNNFYPREAKVQWKVDNALQSGNSQESVTEQDSKDSTYSLSSTLTLSKADYEKHKVYACEVTHQGLSSPVTKSFNRGEC
In assay [1], B1 returned a T cell mediated killing EC50, H-1975 (EGFR+c-Met+) of 0.223 pM; a T cell mediated killing EC50, HT-29 (EGFR+c-Met+) of 0.518 pM; a T cell mediated killing EC50, OSRC2 (EGFR+++c-Met+) of 0.243 nM; a T cell mediated killing EC50, UT33A (EGFR+++c-Met+++) of 2.7 pM. Further, the T cell mediated killing EC50, UT44 (EGFR+++c-Met++) in assay [1] was found to be 0.156 pM.

B2: EGFR-BsAb bispecific control antibody (TA1-Fab anti-CD3 x EGFR VHH) (bispecific antibody, human IgG4 S228P, kappa, F234A L235A)
heavy: EVKLLESGGGLVQPKGSLKLSCAASGFTFNTYAMNWVRQAPGKGLEWVARIRSKYNNYATYYADSVKDRFTISRDDSQSILYLQMNNLKTEDTAMYYCVRHGNFGNSYVSWFAYWGQGTLVTVSSASTKGPSVFPLAPCSRSTSESTAALGCLVKDYFPEPVTVSWNSGALTSGVHTFPAVLQSSGLYSLSSVVTVPSSSLGTKTYTCNVDHKPSNTKVDKRVESKYGPPCPPCPAPEAAGGPSVFLFPPKPKDTLMISRTPEVTCVVVDVSQEDPEVQFNWYVDGVEVHNAKTKPREEQFNSTYRVVSVLTVLHQDWLNGKEYKCKVSNKGLPSSIEKTISKAKGQPREPQVYTLPPCQEEMTKNQVSLWCLVKGFYPSDIAVEWESNGQPENNYKTTPPVLDSDGSFFLYSRLTVDKSRWQEGNVFSCSVMHEALHNHYTQKSLSLSL
chain: QVQLQESGGGSVQAGGSLKLSCAASGRGFSRYAMGWFRQAPGQDREFVATISWTNSTDYADSVKGRFAISRDNAKNTAYLQMNSLKPEDTAVYYCAADKWASSTRSIDYDYWGQGIQVTVSSESKYGPPCPPCPAPEAAGGPSVFLFPPKPKDTLMISRTPEVTCVVVDVSQEDPEVQFNWYVDGVEVHNAKTKPREEQFNSTYRVVSVLTVLHQDWLNGKEYKCKVSNKGLPSSIEKTISKAKGQPREPQVCTLPPSQEEMTKNQVSLSCAVKGFYPSDIAVEWESNGQPENNYKTTPPVLDSDGSFFLVSRLTVDKSRWQEGNVFSCSVMHEALHNRFTQKSLSLSL
light: QAVVTQESALTTSPGETVTLTCRSSTGAVTTSNYANWVQEKPDHLFTGLIGGTNKRAPGVPARFSGSLIGDKAALTITGAQTEDEAIYFCALWYSNLWVFGGGTKVEIKRTVAAPSVFIFPPSDEQLKSGTASVVCLLNNFYPREAKVQWKVDNALQSGNSQESVTEQDSKDSTYSLSSTLTLSKADYEKHKVYACEVTHQGLSSPVTKSFNRGEC
For B2, the BLI-Response (self-interaction) in assay [2] is 0.037 nm.

B3: CEA-CAM6-BsAb bispecific control antibody (TA1-Fab anti-CD3 x CEA-CAM6 VHH) (bispecific antibody, human IgG4 S228P, kappa, F234A L235A)
heavy: EVKLLESGGGLVQPKGSLKLSCAASGFTFNTYAMNWVRQAPGKGLEWVARIRSKYNNYATYYADSVKDRFTISRDDSQSILYLQMNNLKTEDTAMYYCVRHGNFGNSYVSWFAYWGQGTLVTVSSASTKGPSVFPLAPCSRSTSESTAALGCLVKDYFPEPVTVSWNSGALTSGVHTFPAVLQSSGLYSLSSVVTVPSSSLGTKTYTCNVDHKPSNTKVDKRVESKYGPPCPPCPAPEAAGGPSVFLFPPKPKDTLMISRTPEVTCVVVDVSQEDPEVQFNWYVDGVEVHNAKTKPREEQFNSTYRVVSVLTVLHQDWLNGKEYKCKVSNKGLPSSIEKTISKAKGQPREPQVYTLPPCQEEMTKNQVSLWCLVKGFYPSDIAVEWESNGQPENNYKTTPPVLDSDGSFFLYSRLTVDKSRWQEGNVFSCSVMHEALHNHYTQKSLSLSL
chain: QVKLEESGGGLVQAGGSLRLSCRTSGRTNSVYTMGWFRQAPGKEREFVAQIMWGAGTNTHYADSVKGRFTISRDSAESTVYLQMNSLKPEDTAVYYCAANRGIPIAGRQYDYWGQGTQVTVSSESKYGPPCPPCPAPEAAGGPSVFLFPPKPKDTLMISRTPEVTCVVVDVSQEDPEVQFNWYVDGVEVHNAKTKPREEQFNSTYRVVSVLTVLHQDWLNGKEYKCKVSNKGLPSSIEKTISKAKGQPREPQVCTLPPSQEEMTKNQVSLSCAVKGFYPSDIAVEWESNGQPENNYKTTPPVLDSDGSFFLVSRLTVDKSRWQEGNVFSCSVMHEALHNRFTQKSLSLSL
light: QAVVTQESALTTSPGETVTLTCRSSTGAVTTSNYANWVQEKPDHLFTGLIGGTNKRAPGVPARFSGSLIGDKAALTITGAQTEDEAIYFCALWYSNLWVFGGGTKVEIKRTVAAPSVFIFPPSDEQLKSGTASVVCLLNNFYPREAKVQWKVDNALQSGNSQESVTEQDSKDSTYSLSSTLTLSKADYEKHKVYACEVTHQGLSSPVTKSFNRGEC
The molecule B3 yielded a BLI-Response (self-interaction) in assay [3] of 0.045 nm.

B4: HER2-BsAb bispecific control antibody (TA1-Fab anti-CD3 x HER2 VHH) (bispecific antibody, human IgG4 S228P, kappa, F234A L235A)
heavy: EVKLLESGGGLVQPKGSLKLSCAASGFTFNTYAMNWVRQAPGKGLEWVARIRSKYNNYATYYADSVKDRFTISRDDSQSILYLQMNNLKTEDTAMYYCVRHGNFGNSYVSWFAYWGQGTLVTVSSASTKGPSVFPLAPCSRSTSESTAALGCLVKDYFPEPVTVSWNSGALTSGVHTFPAVLQSSGLYSLSSVVTVPSSSLGTKTYTCNVDHKPSNTKVDKRVESKYGPPCPPCPAPEAAGGPSVFLFPPKPKDTLMISRTPEVTCVVVDVSQEDPEVQFNWYVDGVEVHNAKTKPREEQFNSTYRVVSVLTVLHQDWLNGKEYKCKVSNKGLPSSIEKTISKAKGQPREPQVYTLPPCQEEMTKNQVSLWCLVKGFYPSDIAVEWESNGQPENNYKTTPPVLDSDGSFFLYSRLTVDKSRWQEGNVFSCSVMHEALHNHYTQKSLSLSL
chain: QVQLVQSGGGLVQAGGSLRLSCAASGRTFSSYAMAWFRQAPGKEREFVAAISWSGANIYVADSVKGRFTISRDNAKDTVYLQMNSLKPEDTAVYYCAVKLGFAPVEERQYDYWGQGTQVTVSSESKYGPPCPPCPAPEAAGGPSVFLFPPKPKDTLMISRTPEVTCVVVDVSQEDPEVQFNWYVDGVEVHNAKTKPREEQFNSTYRVVSVLTVLHQDWLNGKEYKCKVSNKGLPSSIEKTISKAKGQPREPQVCTLPPSQEEMTKNQVSLSCAVKGFYPSDIAVEWESNGQPENNYKTTPPVLDSDGSFFLVSRLTVDKSRWQEGNVFSCSVMHEALHNRFTQKSLSLSL
light: QAVVTQESALTTSPGETVTLTCRSSTGAVTTSNYANWVQEKPDHLFTGLIGGTNKRAPGVPARFSGSLIGDKAALTITGAQTEDEAIYFCALWYSNLWVFGGGTKVEIKRTVAAPSVFIFPPSDEQLKSGTASVVCLLNNFYPREAKVQWKVDNALQSGNSQESVTEQDSKDSTYSLSSTLTLSKADYEKHKVYACEVTHQGLSSPVTKSFNRGEC
Take B4: the BLI-Response (self-interaction) in assay [4] worked out at 0.066 nm.

B5: CEA-BsAb bispecific control antibody (TA1-Fab anti-CD3 x CEA VHH) (bispecific antibody, human IgG4 S228P, kappa, F234A L235A)
heavy: EVKLLESGGGLVQPKGSLKLSCAASGFTFNTYAMNWVRQAPGKGLEWVARIRSKYNNYATYYADSVKDRFTISRDDSQSILYLQMNNLKTEDTAMYYCVRHGNFGNSYVSWFAYWGQGTLVTVSSASTKGPSVFPLAPCSRSTSESTAALGCLVKDYFPEPVTVSWNSGALTSGVHTFPAVLQSSGLYSLSSVVTVPSSSLGTKTYTCNVDHKPSNTKVDKRVESKYGPPCPPCPAPEAAGGPSVFLFPPKPKDTLMISRTPEVTCVVVDVSQEDPEVQFNWYVDGVEVHNAKTKPREEQFNSTYRVVSVLTVLHQDWLNGKEYKCKVSNKGLPSSIEKTISKAKGQPREPQVYTLPPCQEEMTKNQVSLWCLVKGFYPSDIAVEWESNGQPENNYKTTPPVLDSDGSFFLYSRLTVDKSRWQEGNVFSCSVMHEALHNHYTQKSLSLSL
chain: EVQLVESGGGFVQAGESLTLSCTSSTLTFTPYRMAWYRQAPGKQRDLVADISSGDGRTTNYADFAKGRFTISRDNIKNTVFLRMTNLKPEDTAVYYCNTFVSFVGIARSWGQGTQVTVSSESKYGPPCPPCPAPEAAGGPSVFLFPPKPKDTLMISRTPEVTCVVVDVSQEDPEVQFNWYVDGVEVHNAKTKPREEQFNSTYRVVSVLTVLHQDWLNGKEYKCKVSNKGLPSSIEKTISKAKGQPREPQVCTLPPSQEEMTKNQVSLSCAVKGFYPSDIAVEWESNGQPENNYKTTPPVLDSDGSFFLVSRLTVDKSRWQEGNVFSCSVMHEALHNRFTQKSLSLSL
light: QAVVTQESALTTSPGETVTLTCRSSTGAVTTSNYANWVQEKPDHLFTGLIGGTNKRAPGVPARFSGSLIGDKAALTITGAQTEDEAIYFCALWYSNLWVFGGGTKVEIKRTVAAPSVFIFPPSDEQLKSGTASVVCLLNNFYPREAKVQWKVDNALQSGNSQESVTEQDSKDSTYSLSSTLTLSKADYEKHKVYACEVTHQGLSSPVTKSFNRGEC
B5: the BLI-Response (self-interaction) in assay [5] came out at 0.103 nm.
